Source: patent US10308973B1, “Real-time imaging method of NAPDH-dependent metabolic activity in cell and use thereof” (INDUSTRY FOUNDATION OF CHONNAM NATIONAL UNIVERSITY, priority 2018, dated 2019)

Assays:
[1] = tested on: mBFP-transformed animal cells; assay: NADPH imaging of mBFP-transformed animal cells treated with NADPH dehydrogenase inhibitors; assay type: cell-based; details: compared among the inhibitors of Table 3
Method: The mBFP-transformed animal cells were cultured and treated with NADPH dehydrogenase inhibitors shown in Table 3, respectively, and the amount of change in NADPH was measured.

[2] = tested on: recombinant animal cells (HeLa cell); assay: Two-photon fluorescence imaging of mBFP-expressing animal cells after oxidant treatment; assay type: cell-based; details: 40 μM diamide; glucose-free medium; images every second
Method: The recombinant animal cells produced in the Examples above were treated with diamide, which is an oxidant, to reduce the amount of NADPH in the cells, and the change in fluorescence was observed as follows. First, before observing the recombinant animal cells, the medium was replaced with a culture medium from which glucose was removed to prevent continuous overproduction of NADPH, and the cells were cultured for 1 hour and images thereof were observed. After treatment with 40 μM diamide, fluorescence images were taken every second using a real-time image measurement method using a two-photon microscopy.

[3] = Benzaldehyde reductase activity of mBFP purified from transformed cells; assay type: biochemical; details: benzaldehyde reaction solution
Method: The cultured cells were disrupted, recovered, and purified using the His-tag as follows.
The cell supernatant disrupted with phosphate buffered saline (PBS) was injected into and passed through Ni-NTA Spin Columns (Qiagen), and washed with wash buffer (PBS, 10 mM imidazole). Then, the mBFP protein was recovered with the elution buffer (PBS, 100 mM imidazole).
In order to confirm whether the mBFP protein had activity as a reductase through mutation, the reductase activity of mBFP was measured using the reaction solution for measuring the benzaldehyde reductase activity of Example 1 above.

[4] = Enzyme activity (aldehyde dehydrogenase) of purified mutant mBFP; assay type: biochemical; details: purified protein
Method: In order to measure benzaldehyde dehydrogenase activity, a reaction solution of pH 7.5 in which 100 mM Tris, 100 mM sodium chloride, 0.05% Triton X-100, […] and added at an amount of 10 μL per well containing 90 μL of cultured cells, and reacted for 10 minutes. The change in fluorescence value was measured by the fluorescence reader to measure the amount of NADPH consumed by the activity of mBFP mutant enzyme.
In order to measure the enzyme activity of the short-chain dehydrogenase/reductase family (SDR family) of the purified mutant mBFP, a reaction solution (100 mM Tris, 100 mM sodium chloride, 0.05% Triton X-100, 0.5 mM benzaldehyde, 0.5 mM NADPH, pH 7.5) for measuring aldehyde dehydrogenase was added at an amount of 10 μL to each well to which the protein was added, and reacted for 10 minutes, and then the amount of reduced NADPH was measured using a fluorescent reader.

## C[C@]12CC[C@H](O)CC1=CC[C@@H]1[C@@H]2CC[C@]2(C)C(=O)CC[C@@H]12 [DHEA, Dehydroepiandrosterone]
[1]
  difference of fluorescence intensity due to mBFP after inhibitor treatment: the largest

## CN(C)C(=O)/N=N/C(=O)N(C)C [diamide]
[2]
  fluorescence intensity after oxidant treatment: rapidly decreased

## NC(=O)c1ccc(N)nc1 [6-ANA, 6-Aminonicotinamide]
[1]
  difference of fluorescence intensity due to mBFP after inhibitor treatment: the largest

B1: Wild type: wild-type metagenome-derived blue fluorescent protein, SEQ ID NO: 6, GenBank Accession No. AF485783 (protein)
chain: MQNLNGKVAFVTGGSRGIGAAIVRRLAADGADIAFTYVSASSKNVATALVQELEAKGRRARAIQADSADPAQVRQAVEQAIVQLGPVDVLVNNAGIFLAGPLGEVTLDDYERTMNINVRAPFVAIQAAQASMPDGGRIINIGSCLAERAGRAGVTLYAASKSALLGMTRGLARDLGARGITANVVHPGPIDTDMNPADGERSGELVAVLSLPHYGEVRDIAGMVAFLAGPDGRYVTGASLAVDGGFAA
modifications: BFP wild type Y157 w/o his-tag
[3]
  reductase activity (in words): exhibited the reductase activity
[4]; substrate acetaldehyde
  Enzyme activity of mutant mBFP, Acetaldehyde: 10.34 ± 0.24 U mg^−1
[4]; substrate benzaldehyde
  Enzyme activity of mutant mBFP, Benzaldehyde: 6.41 ± 0.34 U mg^−1
[4]; substrate hexanal
  Enzyme activity of mutant mBFP, Hexanal: 4.34 ± 0.14 U mg^−1
[4]; substrate pivaldehyde
  Enzyme activity of mutant mBFP, Pivaldehyde: 14.43 ± 0.68 U mg^−1
